Experimental data published in publication PMC10770124, “Cryo-EM structures of human SID-1 transmembrane family proteins and implications for their low-pH-dependent RNA transport activity” (Cell Research, 2023).

B1: human SIDT2, full-length (purified, used for cryo-EM and blue native gel) (natural protein, UniProt Q8NBJ9 19-832, looked up)
chain: HLGVLGPKNVSQKDAEFERTYVDEVNSELVNIYTFNHTVTRNRTEGVRVSVNVLNKQKGAPLLFVVRQKEAVVSFQVPLILRGMFQRKYLYQKVERTLCQPPTKNESEIQFFYVDVSTLSPVNTTYQLRVSRMDDFVLRTGEQFSFNTTAAQPQYFKYEFPEGVDSVIVKVTSNKAFPCSVISIQDVLCPVYDLDNNVAFIGMYQTMTKKAAITVQRKDFPSNSFYVVVVVKTEDQACGGSLPFYPFAEDEPVDQGHRQKTLSVLVSQAVTSEAYVSGMLFCLGIFLSFYLLTVLLACWENWRQKKKTLLVAIDRACPESGHPRVLADSFPGSSPYEGYNYGSFENVSGSTDGLVDSAGTGDLSYGYQGRSFEPVGTRPRVDSMSSVEEDDYDTLTDIDSDKNVIRTKQYLYVADLARKDKRVLRKKYQIYFWNIATIAVFYALPVVQLVITYQTVVNVTGNQDICYYNFLCAHPLGNLSAFNNILSNLGYILLGLLFLLIILQREINHNRALLRNDLCALECGIPKHFGLFYAMGTALMMEGLLSACYHVCPNYTNFQFDTSFMYMIAGLCMLKLYQKRHPDINASAYSAYACLAIVIFFSVLGVVFGKGNTAFWIVFSIIHIIATLLLSTQLYYMGRWKLDSGIFRRILHVLYTDCIRQCSGPLYVDRMVLLVMGNVINWSLAAYGLIMRPNDFASYLLAIGICNLLLYFAFYIIMKLRSGERIKLIPLLCIVCTSVVWGFALFFFFQGLSTWQKTPAESREHNRDCILLDFFDDHDIWHFLSSIAMFGSFLVLLTLDDDLDTVQRDKIYVF
modifications: N-glycosylation (six sites on the ECD resolved in the EM map); disulfide bonds
notes: SIDT2, human, full-length; Homodimer in the cryo-EM map; the self rows mean protomer with protomer; also called SID-1 transmembrane family member 2; source: cloned, expressed and purified
B2: human SIDT1, full-length (purified, used for cryo-EM and blue native gel) (natural protein, UniProt Q9NXL6 20-827, looked up)
chain: ASPGHPAKSPRQPPAPRRDPFDAARGADFDHVYSGVVNLSTENIYSFNYTSQPDQVTAVRVYVNSSSENLNYPVLVVVRQQKEVLSWQVPLLFQGLYQRSYNYQEVSRTLCPSEATNETGPLQQLIFVDVASMAPLGAQYKLLVTKLKHFQLRTNVAFHFTASPSQPQYFLYKFPKDVDSVIIKVVSEMAYPCSVVSVQNIMCPVYDLDHNVEFNGVYQSMTKKAAITLQKKDFPGEQFFVVFVIKPEDYACGGSFFIQEKENQTWNLQRKKNLEVTIVPSIKESVYVKSSLFSVFIFLSFYLGCLLVGFVHYLRFQRKSIDGSFGSNDGSGNMVASHPIAASTPEGSNYGTIDESSSSPGRQMSSSDGGPPGQSDTDSSVEESDFDTMPDIESDKNIIRTKMFLYLSDLSRKDRRIVSKKYKIYFWNIITIAVFYALPVIQLVITYQTVVNVTGNQDICYYNFLCAHPLGVLSAFNNILSNLGHVLLGFLFLLIVLRRDILHRRALEAKDIFAVEYGIPKHFGLFYAMGIALMMEGVLSACYHVCPNYSNFQFDTSFMYMIAGLCMLKLYQTRHPDINASAYSAYASFAVVIMVTVLGVVFGKNDVWFWVIFSAIHVLASLALSTQIYYMGRFKIDLGIFRRAAMVFYTDCIQQCSRPLYMDRMVLLVVGNLVNWSFALFGLIYRPRDFASYMLGIFICNLLLYLAFYIIMKLRSSEKVLPVPLFCIVATAVMWAAALYFFFQNLSSWEGTPAESREKNRECILLDFFDDHDIWHFLSATALFFSFLVLLTLDDDLDVVRRDQIPVF
modifications: N-glycosylation (three sites resolved in the EM map); disulfide bonds C130-C222 and C212-C271
notes: SIDT1, human, full-length; Homodimer in the cryo-EM map; the self rows mean protomer with protomer; also called SID-1 transmembrane family member 1; source: cloned, expressed and purified

Legend:
[1] = target: truncated extracellular domain of SIDT2 (SIDT2^ECD) (human); assay: AUC; sedimentation velocity (SV-AUC) of the truncated ECDs in solution, no RNA
[2] = target: the molecule itself; assay: cryo-EM structure; single-particle cryo-EM of SIDT1 (3.33 Å) and SIDT2 (3.17 Å); homodimers with a two-fold axis

| Molecule | stoichiometry N [1] | stoichiometry N [2] |
| --- | --- | --- |
| truncated extracellular domain of SIDT2 (SIDT2^ECD) (domain or fragment) | 2 | – |
| B1 | – | 2 |
| B2 | – | 2 |
